Results taken from patent publication CN112409485A (BEIJING NIUAMBO BIOTECHNOLOGY CO LTD, dated 2021).

T1: Human CEACAM6 Protein, Human, Recombinant (His Tag) (human, UniProt P40199 35-320)
T1 construct: Bought antigen; also called CEACAM6抗原; CEACAM6蛋白; not shown: His tag
T1 sequence (looked up): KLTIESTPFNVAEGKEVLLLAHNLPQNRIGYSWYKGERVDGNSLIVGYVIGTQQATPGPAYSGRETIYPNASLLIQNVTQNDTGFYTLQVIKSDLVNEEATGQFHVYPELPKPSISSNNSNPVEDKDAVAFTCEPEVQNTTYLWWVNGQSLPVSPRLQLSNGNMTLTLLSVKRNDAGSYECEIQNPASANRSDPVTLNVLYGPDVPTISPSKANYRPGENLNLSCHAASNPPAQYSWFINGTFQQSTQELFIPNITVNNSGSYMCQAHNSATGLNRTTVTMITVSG


Molecular target: T1, Human CEACAM6 Protein, Human, …
Experiment: phage ELISA, phage-displayed VHH on coated CEACAM6

Row | Binder | binding result
1 | 单域抗体NBC25 (VHH, Alpaca VHH) VHH: QVKLEESGGGLVQPGGSLRLSCAASGQTARAGIMGWFRQAPGKEREFVAAMGRSGASAYYQDSVQGRFTISRDNAQNTVFLQMNSLKPEDTAVYHCAAGNPIALTTAQYYDYWGQGTQVTVSS | binds
2 | 单域抗体NBC36 (VHH, Alpaca VHH) VHH: QVQLVESGGGLVQAGGSLRLSCVVSGIDFRINNMGWYRQAPGTQRELVASVTPGRNTNYADSVKGRFTISRDNAQNTVYLQMNSLQPEDTAVYSCSAYGPSGAYWGQGTQVTVSS | binds
3 | 单域抗体NBC10 (VHH, Alpaca VHH) VHH: QVKLEESGGGLVQAGGSLRLSCAASGRTFSNYAMGWFREAPGKEREFVGSSSRSGSFSYLVDSVKGRFTIFRDNDKNTVYLQMNSLKPEDTAVYYCAAQTAIRAGVRDDYDFWGQGAQVTVSS | binds
